{"source": "paper PMC7382501", "binders": {"B1": {"name": "Pfas25nt (FwPfas25nt/RvPfas25nt) (dsDNA)", "DNA 1": "TACCCGTACGTAGAACTCGCCAGTA", "DNA 2": "TACTGGCGAGTTCTACGTACGGGTA"}}, "molecular_target": "FasR full-length (crystallisation) (Mycobacterium tuberculosis H37Rv, UniProt O05858 1-228)", "test": "X-ray crystallography", "conditions": "protein: recombinant; tags: N-terminal His6-TEV, likely cleaved with TEV; chain copies: 2; blunt"}
{"binder": "B1", "values": [{"measurement": "binding result", "value": "binds"}]}
